Assay: yeast display, Sf9 membrane polyspecificity reagent, FACS + sequencing; frameworks hold sequencing errors
How it was run: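 Polyreactivity labels are assigned by the sorting gate from which each nanobody was recovered. The gates were low and high (top ~1%), set on anti-HA fluorescence for expression and streptavidin fluorescence for reagent binding. Before sorting, galactose-induced (36–48 hours) yeast display cells were stained for 1 hour at 4 °C with 10% biotinylated, detergent-solubilized Sf9 membrane reagent.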

| Sequence | polyreactivity (PSR sort gate) |
| --- | --- |
| QVQLVESGGGLVQAGGSLRLSCAASGSIFGYYAMGWYRQAPGKERELVARISYSGGTTYYADSVKGRFTISRDNAKNTVYLQMNSLKPEDTAVYYCNARIPYSWRYGYWGQGTQVTVSS | high polyreactivity |
| QVQLVESGGGLVQAGGSLRLSCAASGSIFGYYAMGWYRQAPGKERELVAVITRSGGSTYYADSVKGRFTISRDNAKNTVYLQMNSLKPEDTAVYYSNAKSDYGYKMYYWGQGTQVTVSS | high polyreactivity |
| QVQLVESGGGLVQAGGSLRLSCAASGSIFGYYAMGWYRQAPGKERELVAVITSSGGGTYYADSVKGRFTISRDNAKNTVYLQMNSLKPEDTAVYYCAKLGTRRYDSWGQGTQVTVSS | high polyreactivity |
| QVQLVESGGGLVQAGGSLRLSCAASGSIFGYYGMGWYRQAPGKERELVATITSGGSTNYADSVKGRFTISRDNAKNTVYLQMNSLKPEDTAVYYCARQYGYQPERYGYWGQGTQVTVSS | low polyreactivity |
| QVQLVESGGGLVQAGGSLRLSCAASGSIFGYYTMGWYRQAPGKERELVATITSGGSTYYADSVKGRFTISRDNAKNTDYLQMNSLKPEDTAVYYCNARTAQNVVLYDFGYWGQGTQVTVSS | high polyreactivity |
| QVQLVESGGGLVQAGGSLRLSCAASGSIFHAYAMGWYRQAPGKERELVAAINRGGRTNYADSVKGRFTISRDNAKNTVYLQMNSLKPEDTAVYYCAASYRWVTDKTHYYWGQGTQVTVSS | low polyreactivity |
| QVQLVESGGGLVQAGGSLRLSCAASGSIFHDNAMGWYRQAPGKERELVAAINRGGSTHYADSVKGRFTISRDNAKNTVYLQMNSLKPEDTAVYYCAADGFRPEVGYWGQGTQVTVSS | low polyreactivity |
| QVQLVESGGGLVQAGGSLRLSCAASGSIFHGNAMGWYRQAHGKERELVAVISDGGSTDYADSVKGRFTISRDNANNSVYLQMTSLKPEDTAVYYCNAAYDTQYFYRKHIYYLSGYDYWGQGTQVTVSS | low polyreactivity |
| QVQLVESGGGLVQAGGSLRLSCAASGSIFHGYAMGWYRQAPGKERELVAAISSTGGSTYYADSVKGRFTISRDNAKNTVYLQMNSLKPEDTAVYYCAAYYYVGYRARRYDYWGQGTQVTVSS | high polyreactivity |
| QVQLVESGGGLVQAGGSLRLSCAASGSIFHLYAMGWYRQAPGKERELVAAITWTGGSTYYADSVKGRFTISRDNAKNTVYLQMNSLKPEDTAVYYCAARQQVRLRPGPLYYYWGQGTQVTVSS | high polyreactivity |
| QVQLVESGGGLVQAGGSLRLSCAASGSIFHPYGMGWYRQAPGKERELVAAITSSGGDTYYADSVKGRFTFSRDIAKNTVYLQMISLKPEDTAVYYCAATGLPGYYAYDYWGQGTQVTVSS | low polyreactivity |
| QVQLVESGGGLVQAGGSLRLSCAASGSIFHPYTMGWYRQAPGKERELVAAISWSGGNTNYADSVKGRFTISRDNAKNTVYLQMNSLKPEDTAVYYCNKATNLSGGYDSWGQGTQVTVSS | low polyreactivity |
| QVQLVESGGGLVQAGGSLRLSCAASGSIFHQYVMGWYRQAPGKERELVAAISIRGTRTYYADSVKGRFTISRDNAKNTVYLQMNSLKPEDTAVYYCAVSGGRLQGDYWGQGTQVTVSS | high polyreactivity |
| QVQLVESGGGLVQAGGSLRLSCAASGSIFHSYAMGWYRQAPGKETELVASITASGDSTYYADSVKGRFTISRDNAKNTVYLQMNSLKPEDTAVYYCNTQAVYGGGEGGYDYWGQCTQVTVSS | low polyreactivity |
| QVQLVESGGGLVQAGGSLRLSCAASGSIFHVYAMGWYRQAPGKERELVAAIDRSGGSTYYADSVKGRFTISRDNAKNTVYLQMNSLKPEDTAVYYCAKDVLGGQITDGVGNDYWGQGTQVTVSS | low polyreactivity |
| QVQLVESGGGLVQAGGSLRLSCAASGSIFHWYTMGWYRQAPGKERELVATISAGGSTYYADSVKGRFKISRDNAKNTVYLQMNSLKPEDTAVYYCNRRVHGVYRWRRSDSWGQGTQVTVAS | high polyreactivity |
| QVQLVESGGGLVQAGGSLRLSCAASGSIFIGNTMGWYRQAPGKERELVATIRRSGSRTYYADSVKGRFTISRDNAKNTVYLQMNSLKPEDTAVYYCAADRLRNSGYKTIYDYWGQGTQVTVSS | low polyreactivity |
| QVQLVESGGGLVQAGGSLRLSCAASGSIFIGYAMGWYRQAPGKERELVAAISWSGDSTYYADSVKGRFTISRDNAKNTVYLQMNSLKPEDTAVYYCARDKWGLRYAPTVDYWGQGTQVTVSS | high polyreactivity |
| QVQLVESGGGLVQAGGSLRLSCAASGSIFIGYGMGWYRQAPGKERELVAAITSGSITNYADSVKGRFTISRDNAKNTVYLQMNSLKPEDTAVYNCNADVNFIDDDYWGQGTQVTVSA | low polyreactivity |
| QVQLVESGGGLVQAGGSLRLSCAASGSIFIINAMVWYRQAPGKERELVAAINNGVNTYYADSVKGRFTISRDNAKNTVYLQMNSLKPEDTAGYYCAADYGDPRVNEYDYWGQGTQVTVSS | low polyreactivity |
| QVQLVESGGGLVQAGGSLRLSCAASGSIFINNMGWYRQAPGKERELVAAISNSGGRTYYADSVKGRFTISRDNAKNTVYLQMNSLKPEDTAVYYCAKKSNRLPYGYWGQGTQVTVSS | high polyreactivity |
| QVQLVESGGGLVQAGGSLRLSCAASGSIFIPNAMGWYRQAPGKERELVAAIRSGGSTYYADSVKGRFTISRDNAKNTVYLQLLSLKPEDTAVYYCAADTYTYYYYLARYYYWGQGTQVTVSS | low polyreactivity |

| Sequence | polyreactivity (PSR sort gate) |
| --- | --- |
| QVQLVESGGGLVQAGGSLRLSCAASGSIFIQYDMGWYRQAPGKERELVATIRSCDSTTYADSVKGRFTISRDNAKNTVFLQVNSLKPEDTAVYYCAKDYRFDYDYDYWGQGTQVTVSS | low polyreactivity |
| QVQLVESGGGLVQAGGSLRLSCAASGSIFIRNAMGWYRQAPGKERELVAAITSGGNTYYADSVKGRFTISRDNAKNTVYLQMNSLKPEDTAVYYCNAGRYYRHDYWGQGTQVTVSS | low polyreactivity |
| QVQLVESGGGLVQAGGSLRLSCAASGSIFIRYAMGWYRQAPGKERELVAAITRSGGSTYYADSVKGRFTISRDNAKNTVYLQMNSLKPEDTAVYYCNVLLRRNGYFARGDYWGQGTQVTVSS | high polyreactivity |
| QVQLVESGGGLVQAGGSLRLSCAASGSIFISYAMGWYRQAPGKERELVAAISSGGSTNYADSVKGRFTISRDNAKNTVYLQMNSLKPEDTAVYYCAADGWLWSFTGDGWWFVYWGQGTQVTVSS | low polyreactivity |
| QVQLVESGGGLVQAGGSLRLSCAASGSIFISYAMGWYRQAPGKERELVAAITSGGRTNYADSVKGRFTISRDNAKNTVYLQMNSLKPEDTAVYYCAKRQSHSRKYDYWGQGTQVTVSS | low polyreactivity |
| QVQLVESGGGLVQAGGSLRLSCAASGSIFIVNVMGWYRQAPGKERELVAGITTNGGITYYADSVKGRFTISRDNAKNTVYLQMNSLKPEDTAVYYCATRSASPSSIEMDYWGQGTQVTVSS | low polyreactivity |
| QVQLVESGGGLVQAGGSLRLSCAASGSIFIWYAMGWYRQAPGKERELVATITSSGSTNYADSVKGRFTISRDNAKNTVYLQMNSLKPEDTAVYYCAKRGPLRHYSWGQGTQVTVSS | low polyreactivity |
| QVQLVESGGGLVQAGGSLRLSCAASGSIFIYNAMGWYRQAPGKERELVAAISSSGGSTYYADSVKGRFTISRDNAKNTVYLQMNSLKPVDTAVYYCAARTYYVRGLGGRPGMDYWGQGTQVTVSS | low polyreactivity |
| QVQLVESGGGLVQAGGSLRLSCAASGSIFIYYAMGWYRHAPGKERELDAAISNGGSTNYADSVKGRFTISRDNGKNTVYLQLNRLKPEDTAVYYCNARLERTPSLYLYGSWGQGTQVTVSS | low polyreactivity |
| QVQLVESGGGLVQAGGSLRLSCAASGSIFIYYAMGWYRQAPGKEREFVAAISYSDGDTYYADSVKGRFTISRDNAKNTVYLQMNSLKPEDTAVYYCAAEVPQYYDVGWEDHWGQGTQVTVSS | high polyreactivity |
| QVQLVESGGGLVQAGGSLRLSCAASGSIFIYYAMGWYRQAPGKERELVAAINTGGTTYYADSVKGRFTISRDNAKNTVYLQMNSLKPEDTAVYYCAKYIAYYGYVPSPWDHPGDDYWGQGTQVTVSS | low polyreactivity |
| QVQLVESGGGLVQAGGSLRLSCAASGSIFIYYAMGWYRQAPGKERELVAAISFSGARTYYADSVKGRFTISRDNAKNNVSLQMNSLKPEDTAVYYCNVEIGTGDYDYWGQGTQVTVSS | low polyreactivity |
| QVQLVESGGGLVQAGGSLRLSCAASGSIFKANTMGWSRQAPGKERELVAAISGSGGRTRYADSVRGRFTISRDNAKNTVYLQMNSLKPDVTAVYYCAATDRGGYYYWGQGTQVTVSS | high polyreactivity |
| QVQLVESGGGLVQAGGSLRLSCAASGSIFKAYDMGWYRPAPGKERELVAGISSSDSTYYADSVKGRFSISRDNAKNTVYLQLNSLKPEDTAVYYCAADPVFAAAYIHLYEYWGQGTQVTVSS | low polyreactivity |
| QVQLVESGGGLVQAGGSLRLSCAASGSIFKENAMGWYRQAPGKERELVAAITSSGGNTYYADSVKGRFTISRDHAKNTVYIQMNSLKPEDTAVYYCNAGVPVRSTTTDGYWGQGTQVNVSS | high polyreactivity |
| QVQLVESGGGLVQAGGSLRLSCAASGSIFKEYAMGWYRQAPGKERELVATISWSGGSTYYADSVKGRFTISRDNAKNTVYLQMNSLKPEDTAVYYCNKSTPWWYVVRYDYWGQGTQVTVSS | high polyreactivity |
| QVQLVESGGGLVQAGGSLRLSCAASGSIFKHNDMGWYRQAPGKERELVAAISRSGGATYYAHSVKGRFTISRDNAKNTVYLQMNSLKPEDTAVYYCNAGRRTARYGYWGQGTQVTVSS | high polyreactivity |
| QVQLVESGGGLVQAGGSLRLSCAASGSIFKKYAMGWYRQAPGKERELVAAISKSGGSTYYADSVKGRFTISRDNAKNTVYLQMNSLKPEDTAVYYCAAAAGGSAYWDYDYWGQGTQVTVSS | low polyreactivity |
| QVQLVESGGGLVQAGGSLRLSCAASGSIFKLNAMGWYRQAPGKERELVAAISRGGRKYYADSVKGRFTISRDNAKNTVYLQMNSLKPEDTAVYYCAADASSQIWYYPRDDYWGQGTQVTVSS | low polyreactivity |
| QVQLVESGGGLVQAGGSLRLSCAASGSIFKRNAMGWYRQAPGKERELVASITWRGGRTYYADSVKGRFTISRDNAKNTVYLQMNILKPEDTAVYYCATTQYTSHYDAYGYWGQGTQVTVSS | high polyreactivity |
| QVQLVESGGGLVQAGGSLRLSCAASGSIFKRNAMGWYRQAPGKERQLVASISWSGSRTYYADSVKGRFTISRDNAKNTVYLQMISLKPEDTAVYYCARRIYGGHPSQSTQGDFYYWGQGTQVTVSS | high polyreactivity |

Reference: the nanobody polyreactivity screen of Harvey et al. (2022)
